US20250116658

Experiments:
[1] = test system: MMP9 protease cleavable linker PLGLAG, synthetic peptide fluorogenic probe
[2] = test system: Thrb protease cleavable linker LVPRGSG, synthetic peptide fluorogenic probe
[3] = test system: GzmB protease cleavable linker IEFDSG, synthetic peptide fluorogenic probe
[4] = test system: Thrb substrate peptide (candidate 1) LVSPRSG, fluorogenic peptide

Substance | cleavage of synthetic peptide fluorogenic probe (non-corresponding pair: not cleaved) [1] | cleavage of synthetic peptide fluorogenic probe (non-corresponding pair: not cleaved) [2] | cleavage of synthetic peptide fluorogenic probe (corresponding pair: cleaved) [3] | cleavage of synthetic peptide fluorogenic probe (corresponding pair: cleaved) [2] | cleavage activity in fluorogenic assay [4] | cleavage of synthetic peptide fluorogenic probe (non-corresponding pair: not cleaved) [3] | cleavage of synthetic peptide fluorogenic probe (corresponding pair: cleaved) [1]
Granzyme B (GzmB) protease | specific cleavage was shown by only the corresponding proteases | specific cleavage was shown by only the corresponding proteases | specific cleavage was shown by only the corresponding proteases | – | – | – | –
Thrombin (Thrb) protease | specific cleavage was shown by only the corresponding proteases | – | – | specific cleavage was shown by only the corresponding proteases | showed higher cleavage activity than the original Thrb cleavable sequence design (LVPRGSG (SEQ ID NO: 23)) | specific cleavage was shown by only the corresponding proteases | –
matrix metallopeptidase 9 (MMP9) | – | specific cleavage was shown by only the corresponding proteases | – | – | – | specific cleavage was shown by only the corresponding proteases | specific cleavage was shown by only the corresponding proteases
